Assays:
CD24 antigen = target: T1, CD24 antigen (UniProt P25063 27-59); assay: Biacore SPR
T1 chain: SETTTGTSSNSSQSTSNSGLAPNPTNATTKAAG

[1] = target: T2, CD24 on human cells (HT29, colo257, Panc-1, sh-sy5y, PBMCs) (human, UniProt P25063 27-59); assay: whole cell ELISA and flow cytometry on HT29 cells (HCT116 as low-CD24 control)
T2 construct: whole, on cells; also called CD24-positive cells
T2 chain (looked up): T1 chain

B1: humanized matured NS17 anti-CD24 antibody (antibody, V domains shown)
VH: QVHLQESGPGLVKPSQTLSLTCAVSGYSISSGYTWHWIRQPPGKTVEWIGYIQYTGSTRYNPALRGRLTMSVDTSKNQFSLKLISVTAADTGVYFCARGTTASFDYWGQGTTVTVSS
VL: DIVMTQSPDSLNVSLGERATIRCRSSQSLLYSSDQKNYLTWYQQKPGQPPKLLISWASPRASGVPDRFSGSGSGTDFTLTISSLQAEDVGVYYCQQYFIYPLTFGVGTKLELK
notes: Tested as whole IgG with human CH1-CH3 and Ck, expressed from the pcDNA4-PCMV-TetO2-IgL-PCMV-TetO2-IgH vector; also called matured antibody
CD24 antigen
  Kd: 18 nM
[1]
  binding result: binds

Source: US20220112303A1 (ICHILOV TECH, published 2022)
